{"source": "patent US20050106100A1", "about": "“Compounds containing matrix metalloproteinase substrates and methods of their use” (priority 2003, published 2005)", "key": {"[1]": {"test_system": "CC(=O)N1CCC[C@H]1C(=O)N[C@@H](CC(C)C)C(=O)NCC(=O)N[C@@H](CCc1ccccc1)C(=O)N[C@@H](Cc1ccc(O)cc1)C(=O)N[C@@H](CC(C)C)C(=O)NNC(=O)c1ccc(N/N=C/c2ccccc2S(=O)(=O)ON)nc1", "assay": "Kinetic measurements of substrate hydrolysis by active MMP-9 (radio HPLC assay)", "type": "biochemical, human", "conditions": "other: active MMP-9 final concentration 2 nM, 37° C., 60 minutes, radiolabeled test substrate, pH 7.5", "protocol": "(§1) Purified MMP-2 (10 μg) or MMP-9 (10 μg) were reconstituted in 100 μL of TCN buffer. […] Pro-MMP-2 was activated by incubation with 2 nM APMA for 2 hours at 37° C. At the end of incubation 100 μl of 100% glycerol was added to active MMP-2 and active MMP-9 (final concentration 50% glycerol). Active MMP-2 and active MMP-9 were aliquoted and stored at −20° C.\n(§2) The level of active protease was always quantified by active site titration studies prior to kinetic studies. The active site of MMP-9 and MMP-2 was titrated using the GM6001 dissolved in 100% DMSO at a stock concentration of 2.5 mM. Dilutions (1:2) of GM6001 were prepared in TCN buffer to give a final concentration of 5 nM to 0.04 nM GM6001 in the active site titration assay. Activated MMP-2 or activated MMP-9 (2 nM) was preincubated with increasing concentrations of GM60001 at 37° C. for 15 minutes in 96 well black microtiter plates. […] Plates were read on fluorescence spectrophotometer at excitation wavelength of 320 nm and emission wavelength of 395 nm. The concentration of the active enzyme was determined using the Morrison equation and Kaleidagraph software (Reading, Pa.).\n(§3) The kinetic parameters of substrate hydrolysis were determined using a radio HPLC assay. The turnover of different substrates by active MMP-2 and active MMP-9 was determined using this assay. […] The radiolabel was detected by a IN/US beta ram detector. […]"}, "[2]": {"test_system": "CC(=O)N1CCC[C@H]1C(=O)N[C@@H](CCCN)C(=O)NCC(=O)N[C@@H](CCc1ccccc1)C(=O)N[C@@H](CC(C)C)C(=O)NNC(=O)c1ccc(N/N=C/c2ccccc2S(=O)(=O)O)nc1", "assay": "Kinetic measurements of substrate hydrolysis by active MMP-9 (radio HPLC assay)", "type": "biochemical, human", "conditions": "other: active MMP-9 final concentration 2 nM, 37° C., 60 minutes, radiolabeled test substrate, pH 7.5", "protocol": "as §1, §2, §3"}}, "data": [{"substance": "MMP-9 (Homo sapiens)", "values": [{"measurement": "kcat/Km", "setting": "[1]", "value": "> 100000", "unit": "M⁻¹ s⁻¹"}, {"measurement": "kcat/Km", "setting": "[2]", "value": 4450, "unit": "M⁻¹ s⁻¹"}]}]}
